We go through 10 substances from doi:10.1101/2020.06.12.149252.

In general, Kd refers to the constant that tells how readily two partners part at equilibrium. Low values mean a tighter complex, high ones a looser complex.

This assay deals with taxol-stabilized microtubules (porcine brain tubulin) (porcine) (UniProt P02550). The assay is described as follows: TIRF microscopy.
Chain of UniProt P02550 (P02550 whole entry): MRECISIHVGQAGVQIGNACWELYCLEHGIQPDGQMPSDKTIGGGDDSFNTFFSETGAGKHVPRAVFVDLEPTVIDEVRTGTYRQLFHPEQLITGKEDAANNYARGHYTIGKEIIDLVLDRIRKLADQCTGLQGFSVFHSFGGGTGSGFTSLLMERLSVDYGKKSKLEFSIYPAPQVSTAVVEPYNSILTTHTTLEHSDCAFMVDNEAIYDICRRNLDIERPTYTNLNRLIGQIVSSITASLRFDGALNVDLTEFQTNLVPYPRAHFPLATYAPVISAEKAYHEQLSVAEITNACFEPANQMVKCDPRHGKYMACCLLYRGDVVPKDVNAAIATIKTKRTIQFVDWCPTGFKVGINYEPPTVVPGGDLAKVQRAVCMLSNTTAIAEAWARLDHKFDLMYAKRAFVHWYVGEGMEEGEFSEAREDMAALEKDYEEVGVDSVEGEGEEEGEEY
Consider “sfGFP-DCLK1-D511N (kinase dead), expressed in bacteria under standard conditions (from UniProt O15075 1-740) (natural protein)”, for which the microtubule-bound fluorescence intensity at 3 nM worked out at 7140 and the microtubule-bound fluorescence intensity at 25 nM was 19600.

Turning to “sfGFP-DCLK1-T687/688A co-expressed with lambda phosphatase, without ATP (from UniProt O15075 1-740) (natural protein)”, the Kd was 9.4 nM. This lies in the single-digit nanomolar range.

Take “sfGFP-DCLK1-T687A co-expressed with lambda phosphatase, without ATP (from UniProt O15075 1-740) (natural protein)”: the Kd came to 2.4 nM.

Turning to “sfGFP-DCLK1-T688A co-expressed with lambda phosphatase, without ATP (from UniProt O15075 1-740) (natural protein)”, the Kd amounted to 2.4 nM.

Substance “sfGFP-DCLK1-WT co-expressed with lambda phosphatase, without ATP (from UniProt O15075 1-740) (natural protein)” came in with a Kd of 2.9 nM, a microtubule-bound fluorescence intensity at 3 nM of 14900, a microtubule-bound fluorescence intensity at 12 nM of 20600 and a microtubule-bound fluorescence intensity at 48 nM of 15900.

Substance “sfGFP-DCLK1-WT treated with lambda phosphatase after purification (from UniProt O15075 1-740) (natural protein)” gave a microtubule-bound fluorescence intensity at 3 nM of 15900 and a microtubule-bound fluorescence intensity at 25 nM of 18200.

Substance “sfGFP-DCLK1-WT, expressed in bacteria under standard conditions (from UniProt O15075 1-740) (natural protein)” returned a microtubule-bound fluorescence intensity at 3 nM of 2560 and a microtubule-bound fluorescence intensity at 25 nM of 16500.

For “sfGFP-DCLK1-ΔC4A co-expressed with lambda phosphatase, without ATP (from UniProt O15075 1-648) (domain or fragment)”, the microtubule-bound fluorescence intensity at 3 nM was determined as 745, the microtubule-bound fluorescence intensity at 12 nM stood at 2550 and the microtubule-bound fluorescence intensity at 48 nM was determined as 4530.

Consider “sfGFP-DCLK1-ΔC (aa 1-648) co-expressed with lambda phosphatase, without ATP (from UniProt O15075 1-648) (domain or fragment)”, for which the dissociation constant Kd is 3.9 nM, the microtubule-bound fluorescence intensity at 3 nM was found to be 6790, the microtubule-bound fluorescence intensity at 12 nM was 9840 and the microtubule-bound fluorescence intensity at 48 nM was 14800.

Substance “sfGFP-DCLK1-ΔC (aa 1-648) treated with lambda phosphatase after purification (from UniProt O15075 1-648) (domain or fragment)” gave a microtubule-bound fluorescence intensity at 3 nM of 11800 and a microtubule-bound fluorescence intensity at 25 nM of 21600.
